Source: patent US9051356

Target: synthetic glycosylated MUC1 30-mer peptide …[GalNAcalpha]…
Assay: ELISA on plate-coated glycosylated MUC1 30-mer peptide, antibody 1-400 ng/ml, anti-human Fcgamma1-peroxidase detection

Chain of synthetic glycosylated MUC1 30-mer peptide …[GalNAcalpha]… (peptide, as listed by the source): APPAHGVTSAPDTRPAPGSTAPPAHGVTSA

For “chimeric PankoMab isolated from NM-F9 cells (antibody)”, the binding activity, percent higher than that of the same antibody isolated from CHOdhfr- cells was 50%.
